Numbering of substitutions follows the chain as printed. In names and notes the source's numbering stands.
Assays:
Protein A = target: T1, Protein A (Staphylococcus aureus, UniProt P38507 37-327); test: protein A affinity chromatography, eluate (A) and flow-through (A ft) on non-reducing SDS-PAGE
T1 construct: Resin ligands (MabSelect, MabSelect SuRe) are recombinant or engineered forms; also called protein A chromatography

Protein G = target: T2, Protein G (UniProt P06654 228-352); test: protein G affinity chromatography, eluate (G) and flow-through (G ft) on non-reducing SDS-PAGE
T2 construct: also called protein G chromatography

human CD38 on cells = human CD38 on cells (human, UniProt P28907 1-300); test: cell-based or functional assay
[1] = target: T3, human CD3 epsilon 1-26_Fc fusion protein (human); test: SPR, CD3 epsilon 1-26 Fc coupled to the chip, antibody injected
T3 construct: also called human CD3 1-26_Fc fusion protein

[2] = target: T4, human CD3 epsilon on cells (human, UniProt P07766 23-207); test: FACS staining of HPB-ALL cells, scFv-Fc format, graded relative to chimeric OKT3
T4 construct: whole, on cells; On cells it stands in the CD3/TCR complex; also called HPB-ALL cells (human CD3 epsilon positive T cell tumour line); CD3 on human T cells

[3] = target: T5, soluble extracellular region of cynomolgus monkey CD38 antigen fused to a 6-His-tag (cynomolgus monkey, UniProt Q5VAN0 45-301); test: SPR (summary table, row 'KD cynomolgus monkey CD38 (nM)')
T5 construct: also called cynomolgus CD38

[4] = target: T6, F6 (peptide-Fc fusion derived from the extracellular domain of human CD38) (human, UniProt P0DOX5 195-449 = IgG part); test: SPR
T6 construct: As F1; by count CD38 residues 108-120 (holds M110)

[5] = target: T7, F3 (peptide-Fc fusion derived from the extracellular domain of human CD38) (human, UniProt P0DOX5 223-449 = IgG part); test: SPR, SAR650984 on the chip, peptide-Fc fusion injected
T7 construct: As F1; by count CD38 residues 69-81; also called F3 construct

T2 sequence (P06654 228-352): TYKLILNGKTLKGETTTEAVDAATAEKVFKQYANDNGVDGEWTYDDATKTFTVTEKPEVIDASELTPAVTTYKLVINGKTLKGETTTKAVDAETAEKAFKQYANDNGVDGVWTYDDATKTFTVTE

B1: BTB homodimer construct lacking the VH3 based scFv (other)
chain: DKTHTCPPCPAPEAAGGPSVFLFPPKPKDTLMISRTPEVTCVVVDVSHEDPEVKFNWYVDGVEVHNAKTKPREEQYNSTYRVVSVLTVLHQDWLNGKEYKCKVSNKALPAPIEKTISKAKGQPREPEVATFPPSRDELTKNQVTLVCLVTGFYPSDIAVEWESNGQPENNYKTDPPLLESQGSFALSSRLRVDKSRWQQGNVFSCSVMHEALHNHYTQKSLSLSPGK
notes: Human IgG1 Fc region with the BTB CH3 domain carrying D401Q
Protein A
  binding result: no binding
Protein G
  binding result: no binding

B2: BEAT CD38-9G7Mouse/CD3 (bispecific antibody, human IgG1, kappa, L234A L235A)
heavy: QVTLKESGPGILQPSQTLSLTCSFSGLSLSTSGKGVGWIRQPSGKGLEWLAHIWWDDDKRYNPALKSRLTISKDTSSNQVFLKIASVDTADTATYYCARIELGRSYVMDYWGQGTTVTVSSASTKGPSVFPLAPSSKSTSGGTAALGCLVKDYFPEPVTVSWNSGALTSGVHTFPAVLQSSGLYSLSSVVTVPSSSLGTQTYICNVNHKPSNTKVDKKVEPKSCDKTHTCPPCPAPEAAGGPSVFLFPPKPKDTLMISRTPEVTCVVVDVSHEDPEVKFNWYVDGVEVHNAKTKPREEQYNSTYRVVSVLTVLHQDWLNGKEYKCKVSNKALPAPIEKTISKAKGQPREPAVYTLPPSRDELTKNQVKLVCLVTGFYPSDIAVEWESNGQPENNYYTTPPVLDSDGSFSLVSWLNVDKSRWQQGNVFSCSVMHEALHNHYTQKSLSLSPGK
light: DIVMTQSHKFMSTSVGDRVSISCKASQDVITSVAWFQQKPGQSPKLLIYSASYRYTGVPDRFTGSGSGTDFTFTISSVQAEDLAVYYCQQHYTIPLTFGAGTKLELKRTVAAPSVFIFPPSDEQLKSGTASVVCLLNNFYPREAKVQWKVDNALQSGNSQESVTEQDSKDSTYSLSSTLTLSKADYEKHKVYACEVTHQGLSSPVTKSFNRGEC
chain: EVQLVESGGGLVQPGGSLRLSCAASGYTFTRYTMHWVRQAPGKGLEWIGYINPSRGYTYYADSVKGRFTLSTDKSKNTAYLQMSSLRAEDTAVYYCARYYDDHYCLDYWGQGTLVTVSSGGGGSGGGGSGGGGSDIQLTQSPSSLSASVGDRVTITCRASSSVSYVAWYQQKPGKAPKRWIYDTSKLYSGVPSRFSGSGSGTDYTLTISSLQPEDFATYYCQQWSSNPPTFGQGTKVEIKGGGGTDKTHTCPPCPAPEAAGGPSVFLFPPKPKDTLMISRTPEVTCVVVDVSHEDPEVQFKWYVDGVEVHNAKTKPREEQYNSTFRVVSVLTVLHQDWLNGKEYKCKVSNKALPAPIEKTISKTKGQPREPEVATFPPSREEMTKNQVTLVCLVTGFYPSDIAVEWESSGQPENNYNTDPPLLESDGSFALSSRLRVDKSRWQQGNIFSCSVMHEALHNRFTQKSLSLSPGK
Human CD38 on cells
  killing assay against Daudi cells, flow cytometry readout, EC50 (pM): 3.2 pM

B3: BEAT CD38-OKT10Mouse/CD3 (bispecific antibody, human IgG1, kappa, L234A L235A)
heavy: QVELVESGGSLKLSCAASGFDFSRSWMNWVRQAPGKGLEWIGEINPDSSTINYTTSLKDKFIISRDNAKNTLYLQMTKVRSEDTALYYCARYGNWFPYWGQGTLVTVSSASTKGPSVFPLAPSSKSTSGGTAALGCLVKDYFPEPVTVSWNSGALTSGVHTFPAVLQSSGLYSLSSVVTVPSSSLGTQTYICNVNHKPSNTKVDKKVEPKSCDKTHTCPPCPAPEAAGGPSVFLFPPKPKDTLMISRTPEVTCVVVDVSHEDPEVKFNWYVDGVEVHNAKTKPREEQYNSTYRVVSVLTVLHQDWLNGKEYKCKVSNKALPAPIEKTISKAKGQPREPAVYTLPPSRDELTKNQVKLVCLVTGFYPSDIAVEWESNGQPENNYYTTPPVLDSDGSFSLVSWLNVDKSRWQQGNVFSCSVMHEALHNHYTQKSLSLSPGK
light: DILMTQSQKIMPTSVGDRVSVTCKASQNVDTNVAWYQQKPGQSPKALIYSASYRYSGVPDRFTGSGSGTDFTLTITNVQSEDLAEYFCQQYDSYPLTFGAGTKLDLKRTVAAPSVFIFPPSDEQLKSGTASVVCLLNNFYPREAKVQWKVDNALQSGNSQESVTEQDSKDSTYSLSSTLTLSKADYEKHKVYACEVTHQGLSSPVTKSFNRGE
chain: B2 chain
Human CD38 on cells
  killing assay against Daudi cells, flow cytometry readout, EC50 (pM): 126 pM

B4: BEAT CD38-9G7best-fit/CD3(SP34-Kappa2) antibody (bispecific antibody)
heavy: QVTLKESGPTLVKPTQTLTLTCTFSGLSLSTSGKGVGWIRQPPGKALEWLAHIWWDDDKRYNPALKSRLTITKDTSKNQVVLTMTNMDPVDTATYYCARIELGRSYVMDYWGQGTLVTVSSASTKGPSVFPLAPSSKSTSGGTAALGCLVKDYFPEPVTVSWNSGALTSGVHTFPAVLQSSGLYSLSSVVTVPSSSLGTQTYICNVNHKPSNTKVDKKVEPKSCDKTHTCPPCPAPEAAGGPSVFLFPPKPKDTLMISRTPEVTCVVVDVSHEDPEVQFKWYVDGVEVHNAKTKPREEQYNSTFRVVSVLTVLHQDWLNGKEYKCKVSNKALPAPIEKTISKTKGQPREPAVYTLPPSREEMTKNQVKLVCLVTGFYPSDIAVEWESSGQPENNYYTTPPMLDSDGSFSLVSWLNVDKSRWQQGNIFSCSVMHEALHNRFTQKSLSLSPGK
light: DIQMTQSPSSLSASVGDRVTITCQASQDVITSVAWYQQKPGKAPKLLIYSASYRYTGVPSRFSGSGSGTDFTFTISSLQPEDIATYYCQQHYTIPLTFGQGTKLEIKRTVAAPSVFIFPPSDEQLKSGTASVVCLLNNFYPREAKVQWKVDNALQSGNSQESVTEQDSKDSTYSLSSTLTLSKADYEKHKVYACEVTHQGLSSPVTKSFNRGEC
chain: EVQLVESGGGLVQPGGSLRLSCAASGFTFNTYAMNWVRQAPGKGLEWVARIRSKYNNYATYYADSVKGRFTISRDDSKNTLYLQMNSLRAEDTAVYYCVRHGNFGNSYVSYFAYWGQGTTVTVSSGGGGSGGGGSGGGGSEIVVTQSPATLSVSPGERATLSCRSSTGAVTAANYANWVQEKPGQAFRGLIGGANKRAPGVPARFSGSLSGDEATLTISSLQSEDFAVYYCALFYSNLWVFGQGTKLEIKGGGGTDKTHTCPPCPAPEAAGGPSVFLFPPKPKDTLMISRTPEVTCVVVDVSHEDPEVKFNWYVDGVEVHNAKTKPREEQYNSTYRVVSVLTVLHQDWLNGKEYKCKVSNKALPAPIEKTISKAKGQPREPEVATFPPSRDELTKNQVTLVCLVTGFYPSDIAVEWESNGQPENNYKTDPPLLESQGSFALSSRLRVDKSRWQQGNVFSCSVMHEALHNHYTQKSLSLSPG
notes: Third chain is the anti-CD3 epsilon scFv BEAT heavy chain with humanized SP34 VH5/VL32; also called 9G7xSP34(GV2)
[1]
  Kd: 18 nM

B5: VH8-VL4 (scFv)
scFv-Fc chain: EVQLVESGGGLVQPGGSLRLSCAASGYTFTRYTMHWVRQAPGKGLEWIGYINPSRGYTYYADSVKGRFTLSTDKSKNTAYLQMNSLRAEDTAVYYCARYYDDHYCLDYWGQGTLVTVSSGGGGSGGGGSGGGGSGGGASDIQLTQSPSSLSASVGDRVTITCRASSSVSYVAWYQQKPGKAPKRWIYDTSKLYSGVPSRFSGSRSGTDYTLTISSLQPEDFATYYCQQWSSNPPTFGQGTKVEIK
notes: also called humanized OKT3 VH8-VL4 scFv-Fc fusion; hOKT3 VH8-VL4 scFv Fc
[2]
  binding result: binds

B6: VH8-VL8 (scFv)
scFv-Fc chain: B5 scFv-Fc chain with R204G
notes: also called humanized OKT3 VH8-VL8 scFv-Fc fusion; hOKT3 VH8-VL8 scFv Fc
[2]
  binding result: binds

B7: chimeric 9G7 antibody (antibody, human IgG1, kappa, V domains shown)
VH: QVTLKESGPGILQPSQTLSLTCSFSGLSLSTSGKGVGWIRQPSGKGLEWLAHIWWDDDKRYNPALKSRLTISKDTSSNQVFLKIASVDTADTATYYCARIELGRSYVMDYWGQGTTVTVSS
VL: DIVMTQSHKFMSTSVGDRVSISCKASQDVITSVAWFQQKPGQSPKLLIYSASYRYTGVPDRFTGSGSGTDFTFTISSVQAEDLAVYYCQQHYTIPLTFGAGTKLELKR
[3]
  Kd: 1 nM

B8: SAR650984 antibody (antibody, human IgG1, kappa, V domains shown)
VH: QVQLVQSGAEVAKPGTSVKLSCKASGYTFTDYWMQWVKQRPGQGLEWIGTIYPGDGDTGYAQKFQGKATLTADKSSKTVYMHLSSLASEDSAVYYCARGDYYGSNSLDYWGQGTSVTVSS
VL: DIVMTQSHLSMSTSLGDPVSITCKASQDVSTVVAWYQQKPGQSPRRLIYSASYRYIGVPDRFTGSGAGTDFTFTISSVQAEDLAVYYCQQHYSPPYTFGGGTKLEIKR
notes: also called humanized SAR650984 antibody
[4]
  binding result: binds
[5]
  binding result: no binding (tested: not printed)
